Assay results published in PMC11387133.

Molecular target: microtubules of purified bovine brain tubulin (bovine) (UniProt Q6B856)
Assay: optical trap rupture force assay; kinetochores held on beads by α-penta-His antibody; dynamic microtubules grown from coverslip-anchored GMPCPP seeds; force ramp 0.25 pN/s; 23 °C; BRB80

median rupture force [pN]	Substance
7.5	purified native K. marxianus kinetochores (from UniProt A0ABX6F0Z3 1-547; A0ABX6F2N8 1-203; A0ABX6ES48 1-179; A0ABX6ET36 1-377) (complex)
7.2	purified native S. cerevisiae kinetochores (from UniProt P40568 1-576) (complex)
